# According to patent US20260167699A1 (Chugai, published 2026):
# Changes are numbered by the printed parent chain.
# T1: FcγRIIa(R) extracellular domain, C-terminal His tag (human, UniProt P12318 34-217)
# T1 construct: extracellular domain; Allotype R131; also called 2aR
# T1 sequence: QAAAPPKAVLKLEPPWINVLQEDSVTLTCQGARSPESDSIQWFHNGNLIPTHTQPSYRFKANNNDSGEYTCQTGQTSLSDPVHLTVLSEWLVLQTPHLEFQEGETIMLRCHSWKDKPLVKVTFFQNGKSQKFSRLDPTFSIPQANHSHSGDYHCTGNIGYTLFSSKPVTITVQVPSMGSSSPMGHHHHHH
# T2: FcγRIIa(H) extracellular domain, C-terminal His tag (human, UniProt P12318 34-217)
# T2 construct: extracellular domain; Allotype H131; also called 2aH
# T2 sequence: T1 sequence with R134H
# T3: FcγRIIb extracellular domain, C-terminal His tag (human, UniProt P31994 43-217)
# T3 construct: extracellular domain; also called 2b
# T3 sequence: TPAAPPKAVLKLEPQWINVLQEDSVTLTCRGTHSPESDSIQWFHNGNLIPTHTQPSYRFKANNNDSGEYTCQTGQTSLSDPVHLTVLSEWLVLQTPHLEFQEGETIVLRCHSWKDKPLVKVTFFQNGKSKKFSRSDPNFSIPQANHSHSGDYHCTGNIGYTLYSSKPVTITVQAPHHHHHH
# B1: GpH7-A5/GpH7-B3 variant K326_06M/GpL16-k0 (antibody, human IgG1, kappa)
# heavy 1: not shown
# heavy 2: not shown
# light: DIVMTQSPLSLPVTPGEPASISCQASESLVHSNRNTYLHWYLQKPGQSPQLLIYKVSNRFSGVPDRFSGSGSGTDFTLKISRVEAEDVGVYYCSQNTHVPPTFGQGTKVEIERTVAAPSVFIFPPSDEQLKSGTASVVCLLNNFYPREAKVQWKVDNALQSGNSQESVTEQDSKDSTYSLSSTLTLSKADYEKHKVYACEVTHQGLSSPVTKSFNRGEC
# notes: He Ab: anti-glypican 3 IgG1 heterodimer, only the GpH7-B3 chain mutated; position in EU numbering; also called He Ab
# B2: GpH7-A5/GpH7-B3 variant L328_14T/GpL16-k0 (antibody, human IgG1, kappa)
# heavy 1: not shown
# heavy 2: not shown
# light: B1 light
# notes: as for B1
# B3: GpH7-A5/GpH7-B3 variant L328_02A/GpL16-k0 (antibody, human IgG1, kappa)
# heavy 1: not shown
# heavy 2: not shown
# light: B1 light
# notes: as for B1
# B4: GpH7-A5/GpH7-B3 variant L328_18N/GpL16-k0 (antibody, human IgG1, kappa)
# heavy 1: not shown
# heavy 2: not shown
# light: B1 light
# notes: as for B1
# B5: GpH7-A5/GpH7-B3 variant K326_18N/GpL16-k0 (antibody, human IgG1, kappa)
# heavy 1: not shown
# heavy 2: not shown
# light: B1 light
# notes: as for B1
# B6: GpH7-A5/GpH7-B3 variant K326_19Q/GpL16-k0 (antibody, human IgG1, kappa)
# heavy 1: not shown
# heavy 2: not shown
# light: B1 light
# notes: as for B1
# B7: GpH7-A5/GpH7-B3 variant K326_08L/GpL16-k0 (antibody, human IgG1, kappa)
# heavy 1: not shown
# heavy 2: not shown
# light: B1 light
# notes: as for B1
# B8: GpH7-A5/GpH7-B3 variant K326_14T/GpL16-k0 (antibody, human IgG1, kappa)
# heavy 1: not shown
# heavy 2: not shown
# light: B1 light
# notes: as for B1
# B9: GpH7-A5/GpH7-B3 variant L328_07I/GpL16-k0 (antibody, human IgG1, kappa)
# heavy 1: not shown
# heavy 2: not shown
# light: B1 light
# notes: as for B1
# B10: GpH7-A5/GpH7-B3 variant K326_16H/GpL16-k0 (antibody, human IgG1, kappa)
# heavy 1: not shown
# heavy 2: not shown
# light: B1 light
# notes: as for B1
# B11: GpH7-A5/GpH7-B3 variant P329_10E/GpL16-k0 (antibody, human IgG1, kappa)
# heavy 1: not shown
# heavy 2: not shown
# light: B1 light
# notes: as for B1
# B12: GpH7-A5/GpH7-B3 variant P331_03V/GpL16-k0 (antibody, human IgG1, kappa)
# heavy 1: not shown
# heavy 2: not shown
# light: B1 light
# notes: as for B1
# B13: GpH7-A5/GpH7-B3 variant K326_15Y/GpL16-k0 (antibody, human IgG1, kappa)
# heavy 1: not shown
# heavy 2: not shown
# light: B1 light
# notes: as for B1
# B14: GpH7-A5/GpH7-B3 variant L328_16H/GpL16-k0 (antibody, human IgG1, kappa)
# heavy 1: not shown
# heavy 2: not shown
# light: B1 light
# notes: as for B1
# B15: GpH7-A5/GpH7-B3 variant K326_09D/GpL16-k0 (antibody, human IgG1, kappa)
# heavy 1: not shown
# heavy 2: not shown
# light: B1 light
# notes: as for B1
# B16: GpH7-A5/GpH7-B3 variant P329_09D/GpL16-k0 (antibody, human IgG1, kappa)
# heavy 1: not shown
# heavy 2: not shown
# light: B1 light
# notes: as for B1
# B17: GpH7-A5/GpH7-B3 variant L328_03V/GpL16-k0 (antibody, human IgG1, kappa)
# heavy 1: not shown
# heavy 2: not shown
# light: B1 light
# notes: as for B1
# B18: GpH7-A5/GpH7-B3 variant P331_02A/GpL16-k0 (antibody, human IgG1, kappa)
# heavy 1: not shown
# heavy 2: not shown
# light: B1 light
# notes: as for B1
# B19: GpH7-A5/GpH7-B3 variant N325_09D/GpL16-k0 (antibody, human IgG1, kappa)
# heavy 1: not shown
# heavy 2: not shown
# light: B1 light
# notes: as for B1
# B20: GpH7-A5/GpH7-B3 variant N325_16H/GpL16-k0 (antibody, human IgG1, kappa)
# heavy 1: not shown
# heavy 2: not shown
# light: B1 light
# notes: as for B1
# B21: GpH7-A5/GpH7-B3 variant K326_07I/GpL16-k0 (antibody, human IgG1, kappa)
# heavy 1: not shown
# heavy 2: not shown
# light: B1 light
# notes: as for B1
# B22: GpH7-A5/GpH7-B3 variant L328_13S/GpL16-k0 (antibody, human IgG1, kappa)
# heavy 1: not shown
# heavy 2: not shown
# light: B1 light
# notes: as for B1
# B23: GpH7-A5/GpH7-B3 variant L328_19Q/GpL16-k0 (antibody, human IgG1, kappa)
# heavy 1: not shown
# heavy 2: not shown
# light: B1 light
# notes: as for B1
# B24: GpH7-A5/GpH7-B3 variant L328_04F/GpL16-k0 (antibody, human IgG1, kappa)
# heavy 1: not shown
# heavy 2: not shown
# light: B1 light
# notes: as for B1
# B25: GpH7-A5/GpH7-B3 variant L328_06M/GpL16-k0 (antibody, human IgG1, kappa)
# heavy 1: not shown
# heavy 2: not shown
# light: B1 light
# notes: as for B1
# B26: GpH7-A5/GpH7-B3 variant K326_10E/GpL16-k0 (antibody, human IgG1, kappa)
# heavy 1: not shown
# heavy 2: not shown
# light: B1 light
# notes: as for B1
# B27: GpH7-A5/GpH7-B3 variant K326_13S/GpL16-k0 (antibody, human IgG1, kappa)
# heavy 1: not shown
# heavy 2: not shown
# light: B1 light
# notes: as for B1
# B28: GpH7-A5/GpH7-B3 variant N325_13S/GpL16-k0 (antibody, human IgG1, kappa)
# heavy 1: not shown
# heavy 2: not shown
# light: B1 light
# notes: as for B1
# B29: GpH7-A5/GpH7-B3 variant K326_12R/GpL16-k0 (antibody, human IgG1, kappa)
# heavy 1: not shown
# heavy 2: not shown
# light: B1 light
# notes: as for B1
# B30: GpH7-A5/GpH7-B3 variant L328_15Y/GpL16-k0 (antibody, human IgG1, kappa)
# heavy 1: not shown
# heavy 2: not shown
# light: B1 light
# notes: as for B1
# Target: T4, FcγRIa extracellular domain, C-terminal His tag (human, UniProt P12314 16-292)
# T4 construct: extracellular domain; also called 1a
# T4 sequence (P12314 other isoform, or with tags, fused parts or gaps): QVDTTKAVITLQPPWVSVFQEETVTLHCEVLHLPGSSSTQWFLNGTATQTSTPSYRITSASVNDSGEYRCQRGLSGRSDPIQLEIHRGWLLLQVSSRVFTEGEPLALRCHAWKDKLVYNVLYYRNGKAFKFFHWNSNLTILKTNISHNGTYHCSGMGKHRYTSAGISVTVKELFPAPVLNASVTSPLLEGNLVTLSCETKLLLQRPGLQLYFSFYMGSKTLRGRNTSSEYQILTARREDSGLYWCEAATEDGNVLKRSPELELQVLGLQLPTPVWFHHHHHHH
# Experiment: SPR (Biacore); binding relative to GpH7-A5/GpH7-B3/GpL16-k0 x100;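 further: antibodies captured on a chip surface, soluble FcγR flowed over in HBS-EP+ running buffer at 25 °C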
# Procedure: (§1) The antibody of interest was analyzed for its interaction with FcγR using a BiaCore™ T100, BiaCore™ A100, or BiaCore™ 4000 surface plasmon resonance system (GE Healthcare Japan Corp.). The running buffer used was HBS-EP+ (GE Healthcare Japan Corp.). The assay temperature was set to 25° C. The sensor chips used were: a chip prepared by immobilizing antigenic peptides onto Series S Sensor Chip CM5 (GE Healthcare Japan Corp.) by the amine coupling method; a chip prepared by immobilizing antigenic peptides biotinylated in advance onto Series S Sensor Chip SA (certified) (GE Healthcare Japan Corp.) through their interaction; a chip prepared by immobilizing protein L (ACTIGEN, BioVision, Inc.) onto Series S Sensor Chip CM5 (GE Healthcare Japan Corp.); and a chip prepared by immobilizing protein A/G (Thermo Fisher Scientific K.K.) onto Series S Sensor Chip CM5 (GE Healthcare Japan Corp.). The antibody of interest was captured onto any of these chips and allowed to interact with FcγR diluted with a running buffer. The antibody captured on the chip was washed off through the reaction of 10 mM glycine-HCl (pH 1.5) to regenerate the chip, which was repetitively used.
row,He/Con 1a,Binder
1,108%,B1
2,103%,B2
3,101%,B3
4,101%,B4
5,110%,B5
6,108%,B6
7,105%,B7
8,109%,B8
9,102%,B9
10,109%,B10
11,81.4%,B11
12,104%,B12
13,111%,B13
14,98.5%,B14
15,109%,B15
16,80.1%,B16
17,103%,B17
18,105%,B18
19,105%,B19
20,99.9%,B20
21,106%,B21
22,101%,B22
23,104%,B23
24,100%,B24
25,101%,B25
26,109%,B26
27,106%,B27
28,102%,B28
29,105%,B29
30,104%,B30

# Target: T1, FcγRIIa(R) extracellular domain, …
# Experiment: as above
# Procedure: as §1
row,He/Con 2aR,Binder
1,132%,B1
2,153%,B2
3,150%,B3
4,76.4%,B4
5,110%,B5
6,124%,B6
7,131%,B7
8,128%,B8
9,160%,B9
10,115%,B10
11,72.7%,B11
12,114%,B12
13,131%,B13
14,106%,B14
15,142%,B15
16,76%,B16
17,150%,B17
18,105%,B18
19,111%,B19
20,85.3%,B20
21,141%,B21
22,150%,B22
23,115%,B23
24,177%,B24
25,148%,B25
26,142%,B26
27,119%,B27
28,137%,B28
29,98.6%,B29
30,174%,B30

# Target: T2, FcγRIIa(H) extracellular domain, …
# Experiment: as above
# Procedure: as §1
row,He/Con 2aH,Binder
1,108%,B1
2,138%,B2
3,154%,B3
4,80.6%,B4
5,113%,B5
6,106%,B6
7,96.5%,B7
8,119%,B8
9,111%,B9
10,102%,B10
11,57.6%,B11
12,85.4%,B12
13,102%,B13
14,84.5%,B14
15,115%,B15
16,57.1%,B16
17,116%,B17
18,93.9%,B18
19,55.3%,B19
20,50%,B20
21,104%,B21
22,146%,B22
23,103%,B23
24,84.9%,B24
25,122%,B25
26,106%,B26
27,110%,B27
28,83%,B28
29,105%,B29
30,106%,B30

# Target: T3, FcγRIIb extracellular domain, …
# Experiment: as above
# Procedure: as §1
row,He/Con 2b,Binder
1,185%,B1
2,176%,B2
3,180%,B3
4,101%,B4
5,118%,B5
6,156%,B6
7,198%,B7
8,168%,B8
9,200%,B9
10,133%,B10
11,59.5%,B11
12,132%,B12
13,179%,B13
14,100%,B14
15,216%,B15
16,60.4%,B16
17,157%,B17
18,110%,B18
19,139%,B19
20,78.5%,B20
21,223%,B21
22,186%,B22
23,131%,B23
24,273%,B24
25,176%,B25
26,224%,B26
27,139%,B27
28,198%,B28
29,100%,B29
30,240%,B30

# Target: T5, FcγRIIIa extracellular domain, C-terminal His tag (human, UniProt P08637 17-208)
# T5 construct: extracellular domain; also called 3a
# T5 sequence (P08637 other isoform, or with tags, fused parts or gaps): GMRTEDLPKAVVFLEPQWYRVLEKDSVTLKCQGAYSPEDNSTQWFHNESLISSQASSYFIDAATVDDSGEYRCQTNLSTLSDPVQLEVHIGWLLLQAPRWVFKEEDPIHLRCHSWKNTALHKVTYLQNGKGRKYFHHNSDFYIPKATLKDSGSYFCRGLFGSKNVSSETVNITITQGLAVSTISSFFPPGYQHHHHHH
# Experiment: as above
# Procedure: as §1
row,He/Con 3a,Binder
1,127%,B1
2,77.4%,B2
3,81.3%,B3
4,51.1%,B4
5,134%,B5
6,117%,B6
7,126%,B7
8,140%,B8
9,86.4%,B9
10,106%,B10
11,52.7%,B11
12,66.9%,B12
13,124%,B13
14,55.9%,B14
15,148%,B15
16,52.5%,B16
17,80.9%,B17
18,82.5%,B18
19,53%,B19
20,68%,B20
21,153%,B21
22,73.7%,B22
23,83.4%,B23
24,81.5%,B24
25,80.8%,B25
26,138%,B26
27,118%,B27
28,71.9%,B28
29,101%,B29
30,70.2%,B30
